In paper PMC5806685:

Target: EYFP-RyR1 (full-length rabbit type 1 ryanodine receptor), expressed in RyR1/RyR3 double-null (R1R3) myotubes (rabbit) (UniProt P11716)
Experiment: FRET or BRET

Sequence of EYFP-RyR1 (full-length rabbit type 1 ryanodine receptor), expressed in RyR1/RyR3 double-null (R1R3) myotubes, P11716 1-5037 (natural protein) (P11716 whole entry): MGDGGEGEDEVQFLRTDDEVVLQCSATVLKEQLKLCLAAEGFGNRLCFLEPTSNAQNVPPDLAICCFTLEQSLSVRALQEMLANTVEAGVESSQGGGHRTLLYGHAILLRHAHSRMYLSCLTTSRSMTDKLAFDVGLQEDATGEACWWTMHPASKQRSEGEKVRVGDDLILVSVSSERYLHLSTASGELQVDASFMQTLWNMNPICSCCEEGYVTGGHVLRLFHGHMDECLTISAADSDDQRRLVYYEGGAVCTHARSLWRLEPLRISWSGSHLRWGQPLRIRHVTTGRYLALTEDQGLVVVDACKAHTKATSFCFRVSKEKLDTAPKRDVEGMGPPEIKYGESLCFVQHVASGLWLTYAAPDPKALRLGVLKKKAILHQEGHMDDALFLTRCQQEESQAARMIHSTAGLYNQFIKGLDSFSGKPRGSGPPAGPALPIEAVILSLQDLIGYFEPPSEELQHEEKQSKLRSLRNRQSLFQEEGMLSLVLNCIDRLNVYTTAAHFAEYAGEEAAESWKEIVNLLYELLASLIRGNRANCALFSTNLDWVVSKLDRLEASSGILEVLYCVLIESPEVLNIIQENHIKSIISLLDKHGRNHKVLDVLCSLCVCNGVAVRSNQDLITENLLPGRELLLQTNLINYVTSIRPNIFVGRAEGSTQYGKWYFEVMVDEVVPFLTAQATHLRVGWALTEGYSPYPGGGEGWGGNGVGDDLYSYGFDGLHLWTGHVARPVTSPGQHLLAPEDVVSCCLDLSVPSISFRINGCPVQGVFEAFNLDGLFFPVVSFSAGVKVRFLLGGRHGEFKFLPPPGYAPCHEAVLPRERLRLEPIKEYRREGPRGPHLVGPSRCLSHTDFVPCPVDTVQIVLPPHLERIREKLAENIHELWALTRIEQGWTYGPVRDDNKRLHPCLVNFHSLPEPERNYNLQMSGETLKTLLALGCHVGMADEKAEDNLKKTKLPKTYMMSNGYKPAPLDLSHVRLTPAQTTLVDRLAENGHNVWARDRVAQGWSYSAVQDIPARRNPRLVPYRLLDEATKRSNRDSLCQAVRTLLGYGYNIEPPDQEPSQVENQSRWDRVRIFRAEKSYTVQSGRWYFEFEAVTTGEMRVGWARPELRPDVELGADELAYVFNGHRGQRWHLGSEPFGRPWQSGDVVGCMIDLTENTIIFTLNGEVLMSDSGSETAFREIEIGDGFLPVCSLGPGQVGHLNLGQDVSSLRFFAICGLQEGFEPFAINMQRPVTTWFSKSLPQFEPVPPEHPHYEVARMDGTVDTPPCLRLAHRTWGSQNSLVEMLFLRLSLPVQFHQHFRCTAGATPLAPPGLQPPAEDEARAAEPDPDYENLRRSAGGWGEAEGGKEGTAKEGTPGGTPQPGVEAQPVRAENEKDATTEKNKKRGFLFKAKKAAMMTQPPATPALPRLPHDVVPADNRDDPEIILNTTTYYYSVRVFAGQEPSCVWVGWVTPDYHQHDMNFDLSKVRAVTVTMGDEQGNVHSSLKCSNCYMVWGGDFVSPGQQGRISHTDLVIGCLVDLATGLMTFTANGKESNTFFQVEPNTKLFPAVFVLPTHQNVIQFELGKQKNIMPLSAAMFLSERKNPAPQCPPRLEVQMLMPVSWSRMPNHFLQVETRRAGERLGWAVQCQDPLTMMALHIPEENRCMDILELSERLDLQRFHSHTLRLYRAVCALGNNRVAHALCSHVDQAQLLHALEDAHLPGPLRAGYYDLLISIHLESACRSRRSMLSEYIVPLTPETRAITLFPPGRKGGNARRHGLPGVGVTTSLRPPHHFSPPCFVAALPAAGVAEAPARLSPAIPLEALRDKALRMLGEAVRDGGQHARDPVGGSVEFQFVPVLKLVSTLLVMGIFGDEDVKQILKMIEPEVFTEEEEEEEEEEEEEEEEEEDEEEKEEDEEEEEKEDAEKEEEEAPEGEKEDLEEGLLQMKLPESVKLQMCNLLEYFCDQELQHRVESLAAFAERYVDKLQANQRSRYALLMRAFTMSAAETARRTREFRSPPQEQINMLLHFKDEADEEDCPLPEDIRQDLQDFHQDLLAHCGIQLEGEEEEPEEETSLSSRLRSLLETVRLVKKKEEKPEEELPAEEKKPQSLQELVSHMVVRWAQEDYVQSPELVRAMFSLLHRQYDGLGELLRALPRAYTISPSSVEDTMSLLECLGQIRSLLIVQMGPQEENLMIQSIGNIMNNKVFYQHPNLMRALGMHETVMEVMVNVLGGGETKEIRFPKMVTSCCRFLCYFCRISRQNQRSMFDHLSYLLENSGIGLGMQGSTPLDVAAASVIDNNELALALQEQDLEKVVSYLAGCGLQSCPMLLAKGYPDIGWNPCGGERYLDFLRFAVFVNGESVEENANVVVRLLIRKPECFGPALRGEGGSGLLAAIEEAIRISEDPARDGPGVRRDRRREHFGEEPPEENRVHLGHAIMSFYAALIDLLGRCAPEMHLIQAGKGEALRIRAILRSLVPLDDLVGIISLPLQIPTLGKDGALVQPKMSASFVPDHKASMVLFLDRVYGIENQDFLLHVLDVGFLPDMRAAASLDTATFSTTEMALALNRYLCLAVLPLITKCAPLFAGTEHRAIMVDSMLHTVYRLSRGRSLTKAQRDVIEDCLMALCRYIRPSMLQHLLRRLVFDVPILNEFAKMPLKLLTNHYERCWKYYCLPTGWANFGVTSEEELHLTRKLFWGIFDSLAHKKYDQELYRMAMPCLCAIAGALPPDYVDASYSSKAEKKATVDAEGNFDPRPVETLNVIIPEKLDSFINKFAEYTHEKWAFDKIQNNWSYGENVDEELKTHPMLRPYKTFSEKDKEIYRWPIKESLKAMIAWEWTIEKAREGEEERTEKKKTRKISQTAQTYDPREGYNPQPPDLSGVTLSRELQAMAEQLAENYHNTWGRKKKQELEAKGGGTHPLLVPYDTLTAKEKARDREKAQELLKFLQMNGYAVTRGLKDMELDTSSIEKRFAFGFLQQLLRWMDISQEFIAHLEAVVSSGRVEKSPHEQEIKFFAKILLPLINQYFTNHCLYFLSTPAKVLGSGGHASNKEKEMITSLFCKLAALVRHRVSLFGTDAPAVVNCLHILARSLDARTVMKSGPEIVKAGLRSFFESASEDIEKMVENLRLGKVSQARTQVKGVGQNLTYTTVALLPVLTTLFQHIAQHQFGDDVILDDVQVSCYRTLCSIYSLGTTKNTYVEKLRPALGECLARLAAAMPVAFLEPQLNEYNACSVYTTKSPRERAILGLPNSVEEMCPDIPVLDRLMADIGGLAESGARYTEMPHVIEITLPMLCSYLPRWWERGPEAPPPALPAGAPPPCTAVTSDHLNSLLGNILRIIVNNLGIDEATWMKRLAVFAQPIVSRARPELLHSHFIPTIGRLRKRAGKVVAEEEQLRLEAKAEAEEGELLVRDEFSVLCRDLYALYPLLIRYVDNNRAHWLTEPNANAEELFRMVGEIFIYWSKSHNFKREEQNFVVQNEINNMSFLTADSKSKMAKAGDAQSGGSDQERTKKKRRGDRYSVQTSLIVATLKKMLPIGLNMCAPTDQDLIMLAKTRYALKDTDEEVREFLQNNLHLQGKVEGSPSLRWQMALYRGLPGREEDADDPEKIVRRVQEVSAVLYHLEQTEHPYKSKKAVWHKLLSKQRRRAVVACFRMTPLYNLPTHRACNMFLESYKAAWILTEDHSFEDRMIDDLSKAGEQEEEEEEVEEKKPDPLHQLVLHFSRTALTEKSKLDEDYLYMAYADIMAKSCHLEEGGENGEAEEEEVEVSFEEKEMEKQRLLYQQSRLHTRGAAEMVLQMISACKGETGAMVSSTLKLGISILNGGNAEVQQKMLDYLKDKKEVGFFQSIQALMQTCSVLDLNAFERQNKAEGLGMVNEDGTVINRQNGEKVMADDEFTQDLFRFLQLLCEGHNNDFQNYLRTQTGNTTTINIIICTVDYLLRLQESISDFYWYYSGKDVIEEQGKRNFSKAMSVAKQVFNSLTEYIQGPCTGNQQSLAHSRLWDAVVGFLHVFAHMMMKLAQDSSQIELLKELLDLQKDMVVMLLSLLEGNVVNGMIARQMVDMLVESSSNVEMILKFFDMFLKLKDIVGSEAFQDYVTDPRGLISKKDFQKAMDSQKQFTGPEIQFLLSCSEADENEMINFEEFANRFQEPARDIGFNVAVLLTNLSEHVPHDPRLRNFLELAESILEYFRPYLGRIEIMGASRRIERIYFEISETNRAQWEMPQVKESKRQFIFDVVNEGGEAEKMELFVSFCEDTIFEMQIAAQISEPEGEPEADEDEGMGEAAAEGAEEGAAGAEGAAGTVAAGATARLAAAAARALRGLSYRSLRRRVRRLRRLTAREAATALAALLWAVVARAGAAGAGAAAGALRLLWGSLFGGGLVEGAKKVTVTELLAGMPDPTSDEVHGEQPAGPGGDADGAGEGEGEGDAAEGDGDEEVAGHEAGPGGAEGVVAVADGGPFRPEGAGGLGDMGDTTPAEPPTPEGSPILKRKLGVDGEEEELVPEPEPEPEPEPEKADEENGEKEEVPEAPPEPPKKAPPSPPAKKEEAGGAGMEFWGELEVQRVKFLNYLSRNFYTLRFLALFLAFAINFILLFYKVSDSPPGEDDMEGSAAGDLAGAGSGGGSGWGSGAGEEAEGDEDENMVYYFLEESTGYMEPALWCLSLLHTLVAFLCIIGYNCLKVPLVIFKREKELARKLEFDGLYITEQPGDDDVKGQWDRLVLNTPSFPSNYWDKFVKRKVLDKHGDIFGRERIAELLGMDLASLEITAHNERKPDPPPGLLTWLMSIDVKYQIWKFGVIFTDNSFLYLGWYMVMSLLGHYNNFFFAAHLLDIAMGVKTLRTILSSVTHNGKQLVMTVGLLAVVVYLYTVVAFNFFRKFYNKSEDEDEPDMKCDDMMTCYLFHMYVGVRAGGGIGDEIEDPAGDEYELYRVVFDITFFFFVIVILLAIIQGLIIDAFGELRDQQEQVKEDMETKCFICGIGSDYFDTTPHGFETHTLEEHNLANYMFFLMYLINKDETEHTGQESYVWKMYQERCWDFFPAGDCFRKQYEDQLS

Substance: EYFP-RyR1 (full-length rabbit type 1 ryanodine receptor), expressed in RyR1/RyR3 double-null (R1R3) myotubes, P11716 1-5037 (natural protein)
- FRET efficiency: 8.6%
